The assay addresses HH-120 (IgM-like hACE2-Fc fusion protein) (UniProt Q9BYF1). Kind of assay: SPR. A general note: SPR reads the build-up and loss of mass on a sensor chip optically.
As to “S trimer protein of the SARS-CoV-2 Alpha variant (from UniProt P0DTC2) (natural protein)”, the Kd (usually the concentration at which binding is half-saturated) is 1 nM.
The figure for “S trimer protein of the SARS-CoV-2 Beta variant (from UniProt P0DTC2) (natural protein)” is 1 nM.
The figure for “S trimer protein of the SARS-CoV-2 Delta variant (from UniProt P0DTC2) (natural protein)” is 1 nM; for “S trimer protein of the SARS-CoV-2 Omicron variant (from UniProt P0DTC2) (natural protein)” it is 1 nM.

The values are drawn from publication PMC10457309.
